Data from patent US20200291096A1, “BICYCLIC PEPTIDE LIGAND STING CONJUGATES AND USES THEREOF” (priority 2017, published 2020).
Starred links: 1 amine or outer side, 2 acyl side, 3 side chain; linkers in the order of their positions; H or OH if unused. Positions of bridges follow the written chain, without caps; N, C: chain ends. Non-standard residues stand in square brackets, D forms with d. Residues, ends and D or L forms follow the SMILES beside them. *: point of attachment. X1 = CC(C)[C@H](NC(=O)Cn1cc(CCC(=O)*)nn1)C(=O)N[C@@H](CCCNC(N)=O)C(=O)Nc1ccc(COC(=O)N(C)CCN(C)C(=O)O[C@@H]2[C@@H]3OP(=O)(O)OC[C@H]4O[C@@H](n5cnc6c(N)ncnc65)[C@H](O)[C@@H]4OP(=O)(O)OC[C@H]3O[C@H]2n2cnc3c(=O)[nH]c(N)nc32)cc1; X4 = CC(C)[C@H](NC(=O)Cn1cc(CCC(=O)*)nn1)C(=O)N[C@@H](CCCNC(N)=O)C(=O)Nc1ccc(COC(=O)NCCNC(=O)O[C@@H]2[C@@H]3OP(=O)(O)OC[C@H]4O[C@@H](n5cnc6c(N)ncnc65)[C@H](O)[C@@H]4OP(=O)(O)OC[C@H]3O[C@H]2n2cnc3c(=O)[nH]c(N)nc32)cc1; X5 = Nc1nc2c(ncn2[C@@H]2O[C@@H]3COP(=O)(O)O[C@H]4[C@@H](O)[C@H](n5cnc6c(N)ncnc65)O[C@@H]4COP(=O)(O)O[C@H]3[C@H]2OC(=O)NCCSSCCCC(=O)*)c(=O)[nH]1; X2 = Nc1nc2c(ncn2[C@@H]2O[C@@H]3COP(=O)(O)O[C@H]4[C@@H](O)[C@H](n5cnc6c(N)ncnc65)O[C@@H]4COP(=O)(O)O[C@H]3[C@H]2OC(=O)*)c(=O)[nH]1; X6 = Nc1ncnc2c1ncn2[C@@H]1O[C@@H]2COP(=O)(S)O[C@H]3[C@@H](OC(=O)*)[C@H](n4cnc5c(N)ncnc54)O[C@@H]3COP(=O)(S)O[C@H]2[C@H]1F; 1Nal = N[C@@H](Cc1cccc2ccccc12)C(=O)O; TBMB = c1c(C[*:1])cc(C[*:3])cc1C[*:2]; X3 = O=C(CCc1cn(CCCN[*:1])nn1)[*:2]; Tle = CC(C)(C)[C@H](N)C(=O)O; βAla = NCCC(=O)O; Sar = CNCC(=O)O

Assays:
in vitro [1] = conditions: rat, plasma, pH 7.4
Method: (§1) The pooled frozen mouse, rat, monkey or human plasma is thawed in a water bath at 37° C. prior to experiment. Plasma is centrifuged at 4000 rpm for 5 min and the clots are removed if any. The pH is adjusted to 7.4±0.1 if required. 5 mM intermediate solutions of test compounds are prepared with DMSO. 1 mM intermediate solution of positive control Propantheline is prepared by diluting 5 μL of the stock solution with 45 μL ultra pure water. 1 mM intermediate solution of positive control Enalaprit is prepared by diluting 5 μL of the stock solution with 45 μL DMSO. 100 μM dosing solution is prepared by diluting 20 μL of the intermediate solution (1 mM) with 180 μL DMSO. For positive controls, 100 μM intermediate solution is prepared by diluting 20 μL of the stock solution with 180 μL 45% MeOH/H2O. […] 196 μL of blank plasma is spiked with 4 μL of dosing solution (100 μM) to achieve 2 μM of the final concentration in duplicate and samples are incubated at 37° C. in a water bath. At each time point (0, 1, 2, 4, 6 and 24 hr), 800 μL of stop solution (200 ng/mL tolbutamide, 200 ng/ML Labetalol in 50% MeOH/ACN) was added to precipitate protein and mixed thoroughly. Sample plates are centrifuged at 4,000 rpm for 10 min. An aliquot of supernatant (150 μL) is transferred from each well before submitting to LC-MS/MS analysis.
(§2) The percentage of test compound remaining at the individual time points relative to the 0 hour sample is calculated using following equation: Percent Remaining=100×(PAR at appointed incubation time/PAR at To time) where PAR is the peak area ratio of analyte versus internal standard (IS).

in vitro [2] = conditions: mouse, plasma, pH 7.4
Method: as §1, §2

in vitro [3] = conditions: human, plasma, pH 7.4
Method: as §1, §2

Plasma stability (cyno) = assay type: in vitro ADME; conditions: cynomolgus monkey, pH 7.4, 37° C., read-out: T1/2 (cyno)
Method: as §1, §2

in vitro [4] = conditions: male, CD-1, mouse, whole blood
Method: CD-1 mouse blood (n >2,male, fasted overnight) is collected from animals housed at an internal facility. (EDTA-K2 is used as anticoagulant)
The test compounds and positive control stock solutions are prepared to 10 mM in DMSO or ultrapure water. […] The dosing solutions of test compounds and controls are prepared by diluting the stock solution with 45% MeOH/H2O to achieve 100 uM. Test compound solutions (final incubation concentration=2 μM) are incubated with blood (final DMSO concentration≤1%) at six different time points (0, 1, 2, 4, 6 and 24 hours) in duplicate (n=2). The reaction is terminated by adding 100 uL ultra-pure water, mixing well, then adding 800 uL of 100% methanol containing 200 ng/mL tolbutamide and 200 ng/mL labetalol as internal standards. Samples are then vortexed and centrifuged at 3200×g for 20 minutes. Following centrifugation, the concentration of test compound in the supernatant is determined semi-quantitatively by LC-MS/MS. The percentage of test compound remaining at the individual time points relative to the 0 hour sample is then reported. The percent remaining of test compound after incubation in blood is calculated using following equation: Percent Remaining=100×(PAR at appointed incubation time/PAR at To time) where PAR is the peak area ratio of analyte versus internal standard (IS).

[5] = 3 mg/kg IV, male CD-1 mice, plasma (FIG. 1)
Method: Male CD-1 mice were dosed with 3 mg/kg of Bicycle Conjugate formulated in 25 mM Histidine HCl, 10% sucrose pH 7 via tail vein injection. Serial bleeding (about 80 μL blood/time point) was performed via submadibular or saphenous vein at each time point. All blood samples were immediately transferred into prechilled microcentrifuge tubes containing 2 μL K2-EDTA (0.5M) as anti-coagulant and placed on wet ice. Blood samples were immediately processed for plasma by centrifugation at approximately +4° C., 3000 g. The precipitant including internal standard (350 uL) was immediately added into the 35 uL plasma sample, mixed well and centrifuged at 3220 g, +4° C. for 15 minutes. The supernatant was transferred into pre-labelled polypropylene microcentrifuge tubes, and then quick-frozen over dry ice. The samples were stored at −70° C. or below as needed until analysis. Supernatant samples were mixed with 50 uL water, vortexed well and centrifuged at 3220 g, +4° C. for 15 minutes. A sample of the supernatant was injected for LC-MS/MS analysis using an Acquity UPLC with AB Sciex 6500+Triple Quad MS in positive ion mode to determine the concentrations of Bicycle conjugate and released payload. Plasma concentration versus time data were analyzed by non-compartmental approaches using the Phoenix WinNonlin 6.3 software program. […]

SMILES | half-life at 2 μM (in vitro [1]) | half-life at 2 μM (in vitro [2]) | half-life at 2 μM (in vitro [3]) | half-life at 2 μM (Plasma stability (cyno)) | half-life at 2 μM (in vitro [4]) | stability in mouse blood | systemic elimination [5]
C[C@H](NC(=O)CN(C)C(=O)CN(C)C(=O)CN(C)C(=O)CN(C)C(=O)CN(C)C(=O)CN(C)C(=O)CN(C)C(=O)CN(C)C(=O)CN(C)C(=O)CN(C)C(=O)CCNC(=O)CCc1cn(CCCNC(=O)O[C@@H]2[C@@H]3OP(=O)(S)OC[C@H]4O[C@@H](n5cnc6c(N)ncnc65)[C@H](F)[C@@H]4OP(=O)(S)OC[C@H]3O[C@H]2n2cnc3c(N)ncnc32)nn1)C(=O)N[C@H]1CSCc2cc3cc(c2)CSC[C@H](NC(=O)[C@@H](C)NC(=O)[C@H](Cc2cccc4ccccc24)NC(=O)[C@H](CCC(=O)O)NC(=O)[C@H](CC(N)=O)NC(=O)[C@@H](C)NC1=O)C(=O)N[C@@H](CCC(=O)O)C(=O)N[C@@H](CC(=O)O)C(=O)N[C@@H](Cc1ccccc1)C(=O)N[C@@H](Cc1ccc(O)cc1)C(=O)N[C@@H](CC(=O)O)C(=O)N[C@@H](C(C)(C)C)C(=O)N[C@H](C(N)=O)CSC3 (stereo partly shown) [Conjugate 1 of Example 7.4] (X6-[X3][βAla][Sar][Sar][Sar][Sar][Sar][Sar][Sar][Sar][Sar][Sar]AC[dA]NE[1Nal][dA]CEDFYD[Tle]C-NH2; linker 14-20-27 via TBMB) | > 24 h | 6 to 24 h | > 24 h | > 24 h |  |  | 
CC(C)[C@H](NC(=O)Cn1cc(CCC(=O)NCCC(=O)N(C)CC(=O)N(C)CC(=O)N(C)CC(=O)N(C)CC(=O)N(C)CC(=O)N(C)CC(=O)N(C)CC(=O)N(C)CC(=O)N(C)CC(=O)N(C)CC(=O)N[C@@H](C)C(=O)N[C@H]2CSCc3cc4cc(c3)CSC[C@H](NC(=O)[C@@H](C)NC(=O)[C@H](Cc3cccc5ccccc35)NC(=O)[C@H](CCC(=O)O)NC(=O)[C@H](CC(N)=O)NC(=O)[C@@H](C)NC2=O)C(=O)N[C@@H](CCC(=O)O)C(=O)N[C@@H](CC(=O)O)C(=O)N[C@@H](Cc2ccccc2)C(=O)N[C@@H](Cc2ccc(O)cc2)C(=O)N[C@@H](CC(=O)O)C(=O)N[C@@H](C(C)(C)C)C(=O)N[C@H](C(N)=O)CSC4)nn1)C(=O)N[C@@H](CCCNC(N)=O)C(=O)Nc1ccc(COC(=O)N(C)CCN(C)C(=O)O[C@@H]2[C@@H]3OP(=O)(O)OC[C@H]4O[C@@H](n5cnc6c(N)ncnc65)[C@H](O)[C@@H]4OP(=O)(O)OC[C@H]3O[C@H]2n2cnc3c(=O)[nH]c(N)nc32)cc1 [I-68] ({X1-βAla}-[Sar][Sar][Sar][Sar][Sar][Sar][Sar][Sar][Sar][Sar]AC[dA]NE[1Nal][dA]CEDFYD[Tle]C-NH2; linker 12-18-25 via TBMB) | > 24 h | 6 to 24 h | > 24 h | > 24 h | 2 to 6 h | dramatic stability | rapid systemic elimination
C[C@H](NC(=O)CN(C)C(=O)CN(C)C(=O)CN(C)C(=O)CN(C)C(=O)CN(C)C(=O)CN(C)C(=O)CN(C)C(=O)CN(C)C(=O)CN(C)C(=O)CN(C)C(=O)CCNC(=O)CCc1cn(CCCNC(=O)O[C@@H]2[C@@H]3OP(=O)(O)OC[C@H]4O[C@@H](n5cnc6c(N)ncnc65)[C@H](O)[C@@H]4OP(=O)(O)OC[C@H]3O[C@H]2n2cnc3c(=O)[nH]c(N)nc32)nn1)C(=O)N[C@H]1CSCc2cc3cc(c2)CSC[C@H](NC(=O)[C@@H](C)NC(=O)[C@H](Cc2cccc4ccccc24)NC(=O)[C@H](CCC(=O)O)NC(=O)[C@H](CC(N)=O)NC(=O)[C@@H](C)NC1=O)C(=O)N[C@@H](CCC(=O)O)C(=O)N[C@@H](CC(=O)O)C(=O)N[C@@H](Cc1ccccc1)C(=O)N[C@@H](Cc1ccc(O)cc1)C(=O)N[C@@H](CC(=O)O)C(=O)N[C@@H](C(C)(C)C)C(=O)N[C@H](C(N)=O)CSC3 [I-66] (X2-[X3][βAla][Sar][Sar][Sar][Sar][Sar][Sar][Sar][Sar][Sar][Sar]AC[dA]NE[1Nal][dA]CEDFYD[Tle]C-NH2; linker 14-20-27 via TBMB) | > 24 h | > 24 h | > 24 h | > 24 h | 6 to 24 h | dramatic stability | 
C[C@H](NC(=O)CN(C)C(=O)CN(C)C(=O)CN(C)C(=O)CN(C)C(=O)CN(C)C(=O)CN(C)C(=O)CN(C)C(=O)CN(C)C(=O)CN(C)C(=O)CN(C)C(=O)CCNC(=O)CCCSSCCNC(=O)O[C@@H]1[C@@H]2OP(=O)(O)OC[C@H]3O[C@@H](n4cnc5c(N)ncnc54)[C@H](O)[C@@H]3OP(=O)(O)OC[C@H]2O[C@H]1n1cnc2c(=O)[nH]c(N)nc21)C(=O)N[C@H]1CSCc2cc3cc(c2)CSC[C@H](NC(=O)[C@@H](C)NC(=O)[C@H](Cc2cccc4ccccc24)NC(=O)[C@H](CCC(=O)O)NC(=O)[C@H](CC(N)=O)NC(=O)[C@@H](C)NC1=O)C(=O)N[C@@H](CCC(=O)O)C(=O)N[C@@H](CC(=O)O)C(=O)N[C@@H](Cc1ccccc1)C(=O)N[C@@H](Cc1ccc(O)cc1)C(=O)N[C@@H](CC(=O)O)C(=O)N[C@@H](C(C)(C)C)C(=O)N[C@H](C(N)=O)CSC3 [I-64] ({X5-βAla}-[Sar][Sar][Sar][Sar][Sar][Sar][Sar][Sar][Sar][Sar]AC[dA]NE[1Nal][dA]CEDFYD[Tle]C-NH2; linker 12-18-25 via TBMB) | < 2 h | < 2 h | < 2 h | < 2 h |  |  | 
CC(C)[C@H](NC(=O)Cn1cc(CCC(=O)NCCC(=O)N(C)CC(=O)N(C)CC(=O)N(C)CC(=O)N(C)CC(=O)N(C)CC(=O)N(C)CC(=O)N(C)CC(=O)N(C)CC(=O)N(C)CC(=O)N(C)CC(=O)N[C@@H](C)C(=O)N[C@H]2CSCc3cc4cc(c3)CSC[C@H](NC(=O)[C@@H](C)NC(=O)[C@H](Cc3cccc5ccccc35)NC(=O)[C@H](CCC(=O)O)NC(=O)[C@H](CC(N)=O)NC(=O)[C@@H](C)NC2=O)C(=O)N[C@@H](CCC(=O)O)C(=O)N[C@@H](CC(=O)O)C(=O)N[C@@H](Cc2ccccc2)C(=O)N[C@@H](Cc2ccc(O)cc2)C(=O)N[C@@H](CC(=O)O)C(=O)N[C@@H](C(C)(C)C)C(=O)N[C@H](C(N)=O)CSC4)nn1)C(=O)N[C@@H](CCCNC(N)=O)C(=O)Nc1ccc(COC(=O)NCCNC(=O)O[C@@H]2[C@@H]3OP(=O)(O)OC[C@H]4O[C@@H](n5cnc6c(N)ncnc65)[C@H](O)[C@@H]4OP(=O)(O)OC[C@H]3O[C@H]2n2cnc3c(=O)[nH]c(N)nc32)cc1 [I-65] ({X4-βAla}-[Sar][Sar][Sar][Sar][Sar][Sar][Sar][Sar][Sar][Sar]AC[dA]NE[1Nal][dA]CEDFYD[Tle]C-NH2; linker 12-18-25 via TBMB) | > 24 h | 6 to 24 h | > 24 h | > 24 h |  |  | 
